Bridge positions count the residues as written; N and C are the ends. Square brackets hold non-standard residues; d marks the D form. Ends that are not written are not given here. * marks the point of attachment. Pen = CC(C)(S)[C@H](N)C(=O)O; Tle = CC(C)(C)[C@H](N)C(=O)O; Pip = O=C(O)[C@@H]1CCCCN1; Propionyl = CCC(=O)*; Sar = CNCC(=O)O

The values that follow come from patent US20160354480A1 (VECT HORUS, published 2016).

In assay [1] the target is T1, rat neurotensin receptor type 1 (rat, UniProt P20789 1-424).
T1 construct: whole, on cells; Used as membrane homogenates of transfected HEK 293 cells (0.75 ug/well), not intact cells; also called rNTR-1; rNTR1
T1 sequence (P20789 whole entry): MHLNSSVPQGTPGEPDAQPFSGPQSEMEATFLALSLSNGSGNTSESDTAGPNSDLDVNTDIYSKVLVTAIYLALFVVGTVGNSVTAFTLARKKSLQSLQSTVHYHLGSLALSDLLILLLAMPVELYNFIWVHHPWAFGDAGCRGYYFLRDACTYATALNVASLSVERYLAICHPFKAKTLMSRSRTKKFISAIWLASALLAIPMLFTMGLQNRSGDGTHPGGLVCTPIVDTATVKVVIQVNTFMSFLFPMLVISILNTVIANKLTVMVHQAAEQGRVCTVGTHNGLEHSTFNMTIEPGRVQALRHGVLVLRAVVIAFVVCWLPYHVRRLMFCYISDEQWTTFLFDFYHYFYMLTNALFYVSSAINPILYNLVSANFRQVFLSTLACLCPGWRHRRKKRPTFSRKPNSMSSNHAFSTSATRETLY
Briefly: competition with [3H]-neurotensin on membranes of HEK 293 cells expressing rat NTR-1; Ki from mean IC50 by Cheng-Prusoff.

In assay [2] the target is T2, human neurotensin receptor type 1 (human, UniProt P30989 1-418).
T2 construct: whole, on cells; Used as cell membrane homogenates (0.5 ug/well), not intact cells; also called hNTR-1; Human NTR-1
T2 sequence (P30989 whole entry): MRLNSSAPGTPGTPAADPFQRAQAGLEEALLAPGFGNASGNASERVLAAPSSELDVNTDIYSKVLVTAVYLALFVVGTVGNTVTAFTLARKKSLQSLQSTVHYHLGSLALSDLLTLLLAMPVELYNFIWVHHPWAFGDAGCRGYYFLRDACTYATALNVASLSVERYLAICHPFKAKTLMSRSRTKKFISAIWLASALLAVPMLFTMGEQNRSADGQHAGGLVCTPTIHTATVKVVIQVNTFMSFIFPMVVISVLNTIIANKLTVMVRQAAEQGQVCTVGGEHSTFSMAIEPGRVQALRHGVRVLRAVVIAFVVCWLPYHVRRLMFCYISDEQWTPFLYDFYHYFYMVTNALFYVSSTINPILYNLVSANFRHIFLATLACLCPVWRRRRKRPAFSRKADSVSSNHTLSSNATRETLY
Nature of the assay: competition with [3H]-neurotensin on membranes of CHO cells expressing human NTR-1; Ki from mean IC50 by Cheng-Prusoff.

Take KRPY[Tle]L (X stands for Tle) [[Lys8, Tle12]NT(8-13)]: the Ki – broadly, a measure of affinity in units of concentration, obtained from inhibition or displacement – in assay [1] amounted to 680 pM; in assay [2], 220 pM.
With RRPW[Tle]L (X stands for Tle) [[Trp11, Tle12]NT(8-13)], the Ki in assay [1] was 850 pM; in assay [2] it was 3100 pM.
In the same order, the values of RKPY[Tle]L (X stands for Tle) [[Lys9, Tle12]NT(8-13)] are 4200 pM and 1700 pM.
In the case of KRPW[Tle]L (X stands for Tle) [[Lys8, Trp11, Tle12]NT(8-13)], the inhibition constant Ki in assay [1] was 3310 pM; in assay [2] it was 13800 pM.

B1: compound XIX, SEQ ID NO: 9-[Lys8, Trp11, Tle12]NT(8-13) (peptide)
peptide: Propionyl-[dC]M[Pip]RLR[Sar]CKRPW[Tle]L-OH
modifications: disulfide 1-8
SMILES: CCC(=O)N[C@@H]1CSSC[C@@H](C(=O)N[C@@H](CCCCN)C(=O)N[C@@H](CCCNC(=N)N)C(=O)N2CCC[C@H]2C(=O)N[C@@H](Cc2c[nH]c3ccccc23)C(=O)N[C@H](C(=O)N[C@@H](CC(C)C)C(=O)O)C(C)(C)C)NC(=O)CN(C)C(=O)[C@H](CCCNC(=N)N)NC(=O)[C@H](CC(C)C)NC(=O)[C@H](CCCNC(=N)N)NC(=O)[C@@H]2CCCCN2C(=O)[C@H](CCSC)NC1=O
For B1, the values for the inhibition constant Ki in assay [1] and in assay [2] were 30 pM and 6340 pM, respectively.

B2: compound XVII, SEQ ID NO: 9-[Lys9, Tle12]NT(8-13) (peptide)
peptide: Propionyl-[dC]M[Pip]RLR[Sar]CRKPY[Tle]L-OH
modifications: disulfide 1-8
SMILES: CCC(=O)N[C@@H]1CSSC[C@@H](C(=O)N[C@@H](CCCNC(=N)N)C(=O)N[C@@H](CCCCN)C(=O)N2CCC[C@H]2C(=O)N[C@@H](Cc2ccc(O)cc2)C(=O)N[C@H](C(=O)N[C@@H](CC(C)C)C(=O)O)C(C)(C)C)NC(=O)CN(C)C(=O)[C@H](CCCNC(=N)N)NC(=O)[C@H](CC(C)C)NC(=O)[C@H](CCCNC(=N)N)NC(=O)[C@@H]2CCCCN2C(=O)[C@H](CCSC)NC1=O
As to B2, the Ki in assay [1] stood at 190 pM; in assay [2], 470 pM.

B3: compound XV, SEQ ID NO: 9-[Tle12]NT(8-13) (peptide)
peptide: Propionyl-[dC]M[Pip]RLR[Sar]CRRPY[Tle]L-OH
modifications: disulfide 1-8
SMILES: CCC(=O)N[C@@H]1CSSC[C@@H](C(=O)N[C@@H](CCCNC(=N)N)C(=O)N[C@@H](CCCNC(=N)N)C(=O)N2CCC[C@H]2C(=O)N[C@@H](Cc2ccc(O)cc2)C(=O)N[C@H](C(=O)N[C@@H](CC(C)C)C(=O)O)C(C)(C)C)NC(=O)CN(C)C(=O)[C@H](CCCNC(=N)N)NC(=O)[C@H](CC(C)C)NC(=O)[C@H](CCCNC(=N)N)NC(=O)[C@@H]2CCCCN2C(=O)[C@H](CCSC)NC1=O
B3: the Ki in assay [1] is 60 pM; in assay [2] it was 400 pM.

B4: compound XX, SEQ ID NO: 11-[Lys8, Tle12]NT(8-13) (peptide)
peptide: Propionyl-[dC]M[Pip]RLR[Sar][Pen]KRPY[Tle]L-OH
modifications: disulfide 1-8
SMILES: CCC(=O)N[C@@H]1CSSC(C)(C)[C@@H](C(=O)N[C@@H](CCCCN)C(=O)N[C@@H](CCCNC(=N)N)C(=O)N2CCC[C@H]2C(=O)N[C@@H](Cc2ccc(O)cc2)C(=O)N[C@H](C(=O)N[C@@H](CC(C)C)C(=O)O)C(C)(C)C)NC(=O)CN(C)C(=O)[C@H](CCCNC(=N)N)NC(=O)[C@H](CC(C)C)NC(=O)[C@H](CCCNC(=N)N)NC(=O)[C@@H]2CCCCN2C(=O)[C@H](CCSC)NC1=O
Regarding B4, the results for the Ki in assay [1] and in assay [2] were 80 pM and 110 pM, respectively.

B5: compound X, SEQ ID NO: 9-GGG-NT(6-13) (peptide)
peptide: Propionyl-[dC]M[Pip]RLR[Sar]CGGGKPRRPYIL-OH
modifications: disulfide 1-8
SMILES: CCC(=O)N[C@@H]1CSSC[C@@H](C(=O)NCC(=O)NCC(=O)NCC(=O)N[C@@H](CCCCN)C(=O)N2CCC[C@H]2C(=O)N[C@@H](CCCNC(=N)N)C(=O)N[C@@H](CCCNC(=N)N)C(=O)N2CCC[C@H]2C(=O)N[C@@H](Cc2ccc(O)cc2)C(=O)N[C@H](C(=O)N[C@@H](CC(C)C)C(=O)O)[C@@H](C)CC)NC(=O)CN(C)C(=O)[C@H](CCCNC(=N)N)NC(=O)[C@H](CC(C)C)NC(=O)[C@H](CCCNC(=N)N)NC(=O)[C@@H]2CCCCN2C(=O)[C@H](CCSC)NC1=O
B5: in assay [2], the affinity corresponds to a Ki of 130 pM.

B6: compound XVIII, SEQ ID NO: 9-[Trp11, Tle12]NT(8-13) (peptide)
peptide: Propionyl-[dC]M[Pip]RLR[Sar]CRRPW[Tle]L-OH
modifications: disulfide 1-8
SMILES: CCC(=O)N[C@@H]1CSSC[C@@H](C(=O)N[C@@H](CCCNC(=N)N)C(=O)N[C@@H](CCCNC(=N)N)C(=O)N2CCC[C@H]2C(=O)N[C@@H](Cc2c[nH]c3ccccc23)C(=O)N[C@H](C(=O)N[C@@H](CC(C)C)C(=O)O)C(C)(C)C)NC(=O)CN(C)C(=O)[C@H](CCCNC(=N)N)NC(=O)[C@H](CC(C)C)NC(=O)[C@H](CCCNC(=N)N)NC(=O)[C@@H]2CCCCN2C(=O)[C@H](CCSC)NC1=O
B6: the Ki in assay [1] worked out at 20 pM; in assay [2] it was 2980 pM.

B7: compound XVI, SEQ ID NO: 9-[Lys8, Tle12]NT(8-13) (peptide)
peptide: Propionyl-[dC]M[Pip]RLR[Sar]CKRPY[Tle]L-OH
modifications: disulfide 1-8
SMILES: CCC(=O)N[C@@H]1CSSC[C@@H](C(=O)N[C@@H](CCCCN)C(=O)N[C@@H](CCCNC(=N)N)C(=O)N2CCC[C@H]2C(=O)N[C@@H](Cc2ccc(O)cc2)C(=O)N[C@H](C(=O)N[C@@H](CC(C)C)C(=O)O)C(C)(C)C)NC(=O)CN(C)C(=O)[C@H](CCCNC(=N)N)NC(=O)[C@H](CC(C)C)NC(=O)[C@H](CCCNC(=N)N)NC(=O)[C@@H]2CCCCN2C(=O)[C@H](CCSC)NC1=O
B7: the Ki in assay [1] was found to be 120 pM; in assay [2], 150 pM.
